Assay [1] concerns the target T1, 13-mer peptide, amino acids 61 to 73 of the HLA-DR β chain (DRB1*15011) (human).
T1 peptide: Ac-WNSQKDILEQARA-{cellulose membrane}
Put plainly: SPOT 13-mer peptide array on cellulose membrane, chemiluminescence. As for the experimental part: (§1) The epitope of each antibody was analyzed by Western blotting in accordance with a conventional technique. In simple terms, a cellulose or PVDF membrane was blocked with Block Ace (Yukijirushi), etc., each antibody was allowed to react therewith at 1 μg/mL as a primary antibody and at 0.5 μg/mL as a secondary antibody using […], the HRP-labeled anti-human antibody (e.g., DAKO) was allowed to react therewith, and the chemiluminescence was detected using a chemiluminescent reagent (e.g., ECL Western blotting detection reagent, Amersham Bioscience) and a chemiluminescence detector (e.g., LAS-1000, Fuji Film).
(§2) The subsequent reaction was carried out based on conventional Western blot analysis (see, for example, Reineke, U. et al., (2001), “Epitope mapping with synthetic peptides prepared by SPOT synthesis.” Antibody Engineering (Springer Lab Manual) Eds.: Kontermann/Dubel, 433459). In the analysis, LumilmagerTM (Boehringer-Mannheim) was used to represent the color intensity in each spot by numerical values.

Assay [2] deals with T2, SEQ ID NO 24 (human).
T2 peptide: Ac-WNSQKDFLEDRRA-{cellulose membrane}
Put plainly: polymorphic 61-73 peptide spots, chemiluminescence. As for the experimental part: as §1
(§3) The subsequent reaction was carried out based on conventional Western blot analysis (see, for example, Reineke, U. et al., (2001), “Epitope mapping with synthetic peptides prepared by SPOT synthesis.” Antibody Engineering (Springer Lab Manual) Eds.: Kontermann/Dubel, 433459). In the analysis, LumilmagerTM (Boehringer-Mannheim) was used to represent the color intensity in each spot by numerical values. […]

The target of assay [3] is T3, SEQ ID NO 25 (human).
T3 peptide: Ac-WNSQKDFLERRRA-{cellulose membrane}
Put plainly: polymorphic 61-73 peptide spots, chemiluminescence. As for the experimental part:
as §1, §3

For assay [4], the target named is T4, SEQ ID NO 26 (human).
T4 peptide: Ac-WNSQKDFLEDERA-{cellulose membrane}
Put plainly: polymorphic 61-73 peptide spots, chemiluminescence. As to the method: as §1, §3

The target in assay [5] is T5, SEQ ID NO 27 (human).
T5 peptide: Ac-WNSQKDFLEQARA-{cellulose membrane}
Put plainly: polymorphic 61-73 peptide spots, chemiluminescence. As for the experimental part:
as §1, §3

Assay [6] has as its target T6, SEQ ID NO 28 (human).
T6 peptide: Ac-WNSQKDILEDERA-{cellulose membrane}
Put plainly: polymorphic 61-73 peptide spots, chemiluminescence. As to the method: as §1, §3

The target in assay [7] is T7, SEQ ID NO 29 (human).
T7 peptide: Ac-WNSQKDILEQKRG-{cellulose membrane}
Put plainly: polymorphic 61-73 peptide spots, chemiluminescence. As for the experimental part:
as §1, §3

Assay [8] has as its target T8, SEQ ID NO 30 (human).
T8 peptide: Ac-WNSQKDILEDRRA-{cellulose membrane}
Put plainly: polymorphic 61-73 peptide spots, chemiluminescence. As for the experimental part: as §1, §3

Assay [9] deals with T9, SEQ ID NO 31 (human).
T9 peptide: Ac-WNSQKDILEDRRG-{cellulose membrane}
Put plainly: polymorphic 61-73 peptide spots, chemiluminescence. As to the method: as §1, §3

The target of assay [10] is T10, SEQ ID NO 32 (human).
T10 peptide: Ac-WNSQKDILEDKRA-{cellulose membrane}
Put plainly: polymorphic 61-73 peptide spots, chemiluminescence. As to the method: as §1, §3

Assay [11] deals with T11, SEQ ID NO 33 (human).
T11 peptide: Ac-WNSQKDILEQARA-{cellulose membrane}
Put plainly: polymorphic 61-73 peptide spots, chemiluminescence. As for the experimental part: as §1, §3

Assay [12] has as its target T12, SEQ ID NO 34 (human).
T12 peptide: Ac-WNSQKDLLEQRRA-{cellulose membrane}
Put plainly: polymorphic 61-73 peptide spots, chemiluminescence. As for the experimental part: as §1, §3

In assay [13] the target is T13, SEQ ID NO 35 (human).
T13 peptide: Ac-WNSQKDLLEQARA-{cellulose membrane}
Put plainly: polymorphic 61-73 peptide spots, chemiluminescence. As to the method: as §1, §3

Assay [14] has as its target T14, SEQ ID NO 36 (human).
T14 peptide: Ac-WNSQKDLLEQKRG-{cellulose membrane}
Put plainly: polymorphic 61-73 peptide spots, chemiluminescence. As for the experimental part:
as §1, §3

The target of assay [15] is T15, SEQ ID NO 37 (human).
T15 peptide: Ac-WNSQKDLLEDRRA-{cellulose membrane}
Put plainly: polymorphic 61-73 peptide spots, chemiluminescence. As for the experimental part:
as §1, §3

The target of assay [16] is T16, SEQ ID NO 38 (human).
T16 peptide: Ac-WNSQKDLLERRRA-{cellulose membrane}
Put plainly: polymorphic 61-73 peptide spots, chemiluminescence. As for the experimental part:
as §1, §3

Assay [17] addresses T17, SEQ ID NO 39 (human).
T17 peptide: Ac-WNSQKDLLEDERA-{cellulose membrane}
Put plainly: polymorphic 61-73 peptide spots, chemiluminescence. As for the experimental part: as §1, §3

The target in assay [18] is T18, SEQ ID NO 40 (human).
T18 construct: The entry already carries the substitution
T18 peptide: Ac-WNSQKDALEQRRA-{cellulose membrane}
Put plainly: alanine-substituted 61-73 peptide spots, chemiluminescence. As for the experimental part:
as §1, §2
(§4) Further, 12 peptides (SEQ ID Nos: 40 to 51) in which each amino acid has been substituted with alanine ([…] if it is originally alanine) were subjected to Western blotting under similar conditions. In the analysis, LAS2000 and ImageGauge analyzing software (Fuji Photo Film) were used to represent the color intensity in each spot by numerical values.

For assay [19], the target named is T19, SEQ ID NO 41 (human).
T19 construct: The entry already carries the substitution
T19 peptide: Ac-WNSQKDLLEARRA-{cellulose membrane}
The assay is described as above. As to the method:
as §1, §2, §4

The target in assay [20] is T20, SEQ ID NO 42 (human).
T20 construct: The entry already carries the substitution
T20 peptide: Ac-WNSQKDLLEQARA-{cellulose membrane}
Described as above. As for the experimental part: as §1, §2, §4

For assay [21], the target named is T21, SEQ ID NO 43 (human).
T21 construct: The entry already carries the substitution
T21 peptide: Ac-WNSQKDLLEQRRG-{cellulose membrane}
The assay is described as above. As to the method:
as §1, §2, §4

Assay [22] concerns the target T22, SEQ ID NO 44 (human).
T22 construct: The entry already carries the substitution
T22 peptide: Ac-ANSQKDLLEQRRA-{cellulose membrane}
The assay is described as above. As for the experimental part:
as §1, §2, §4

In assay [23] the target is T23, SEQ ID NO 45 (human).
T23 construct: The entry already carries the substitution
T23 peptide: Ac-WASQKDLLEQRRA-{cellulose membrane}
Described as above. As for the experimental part:
as §1, §2, §4

The target of assay [24] is T24, SEQ ID NO 46 (human).
T24 construct: The entry already carries the substitution
T24 peptide: Ac-WNAQKDLLEQRRA-{cellulose membrane}
The assay is described as above. As to the method: as §1, §2, §4

In assay [25] the target is T25, SEQ ID NO 47 (human).
T25 construct: The entry already carries the substitution
T25 peptide: Ac-WNSAKDLLEQRRA-{cellulose membrane}
The description is as above. As for the experimental part:
as §1, §2, §4

Assay [26] deals with T26, SEQ ID NO 48 (human).
T26 construct: The entry already carries the substitution
T26 peptide: Ac-WNSQADLLEQRRA-{cellulose membrane}
The assay is described as above. As to the method:
as §1, §2, §4

Assay [27] deals with T27, SEQ ID NO 49 (human).
T27 construct: The entry already carries the substitution
T27 peptide: Ac-WNSQKALLEQRRA-{cellulose membrane}
The assay is described as above. As for the experimental part: as §1, §2, §4

Assay [28] has as its target T28, SEQ ID NO 50 (human).
T28 construct: The entry already carries the substitution
T28 peptide: Ac-WNSQKDLLAQRRA-{cellulose membrane}
Described as above. As for the experimental part:
as §1, §2, §4

The target in assay [29] is T29, SEQ ID NO 51 (human).
T29 construct: The entry already carries the substitution
T29 peptide: Ac-WNSQKDLLEQRAA-{cellulose membrane}
Described as above. As to the method: as §1, §2, §4

Assay [30] concerns the target T30, 13-mer peptide, amino acids 65 to 77 of the HLA-DR β chain (DRB1*15011) (human).
T30 peptide: Ac-KDILEQARAAVDT-{cellulose membrane}
Put plainly: SPOT 13-mer peptide array on cellulose membrane, chemiluminescence. As for the experimental part: as §1, §2

cellulose membrane = peptide bound to a cellulose membrane through the C-terminus

B1: HD4 (antibody, IgG1, V domains shown)
VH: EVQLLESGGGLVQPGGSLRLSCAASGFTFSSYAMTWVRQAPGKGLEWVSGISGGGDSTYYADSVKGRFTISRDNSKNTLYLQMNSLRAEDTAVYYCARDHGSGSYYPYWFDYWGQGTLVTVSS
VL: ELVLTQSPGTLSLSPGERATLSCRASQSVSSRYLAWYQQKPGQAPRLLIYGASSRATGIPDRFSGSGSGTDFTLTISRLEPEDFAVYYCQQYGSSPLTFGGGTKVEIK
notes: also called antibody produced from the hybridoma HD4 (FERM BP-7771)
Turning to B1, the binding result in assay [1] was “binds”.

B2: HD8 (antibody, IgG2, V domains shown)
VH: QVQLQHSGPGLVKPSQTLSLTCAISGDSVSSNSASWNWIRQSPSRGLEWLGRTYYRSKWYNDYAVSVKSRIVINPDTSKNQFSLQLNSVTPEDTAVYYCARENFYGSETCHKKYYCYGMDVWGQGTTVTVSS
VL: AIQLTQSPSSLSASVGDRVTITCRASQGISSALAWYQQKPGKAPKLLIYDASSLESGVPSRFSGSGSGTDFTLTISSLQPEDFATYYCQQFNSFPLTFGGGTKVEIK
notes: also called antibody produced from the hybridoma HD8 (FERM BP-7773)
On to B2, for which the binding result in assay [2], in assay [3], in assay [4], in assay [5], in assay [6] and in assay [7] was “binds” throughout. Besides, the binding result in assay [8], in assay [9], in assay [10], in [11], in assay [12] and in assay [13] was “binds” throughout. In addition, the binding result in assay [14], in [15], in assay [16], in assay [17], in assay [18] and in [19] was “binds” in each case. Also, the binding result in [20], in assay [21], in [22], in assay [23], in assay [24] and in assay [25] was “binds” throughout. The binding result is reported as “no binding (tested: 1 µg/mL)” in [26]; “no binding (tested: 1 µg/mL)” in assay [27]; “no binding (tested: 1 µg/mL)” in [28]; “no binding (tested: 1 µg/mL)” in [29]; “binds” in assay [1]; “binds” in assay [30].

(Values after patent US20040091974A1 (KIRIN BEER, published 2004).)
